The source of these data is the nanobody polyreactivity screen of Harvey et al. (2022).

This data set in a line: yeast display, Sf9 membrane polyspecificity reagent, FACS + sequencing; frameworks hold sequencing errors. Summed up:
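In a synthetic yeast display library (Saccharomyces cerevisiae BJ5465), nanobody expression was induced with galactose for 36–48 hours. FACS gates were set low and high (top ~1%) using anti-HA fluorescence for expression and streptavidin fluorescence for binding of the Sf9 membrane reagent. Each polyreactivity label is drawn from the gate of origin.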
Turning to “QVQLVESGGGLVQAGGSLRLSCAASGITFDRYVMGWYRQAPGKERELVAAISWTGDSTYYADSVKGRFTISRDNAKNTVYLQMNSQKPEDTAVYYCAAEDLWYGYNYWGQGTQVTVSS”, the “polyreactivity (PSR sort gate)” value is listed as “high polyreactivity”.
In the case of “QVQLVESGGGFVQAGGSLRLSCAASGIIVRANAMGWYRQAPGKERELVAAISSSGGSTFYADSVKGRFTISLDNAKNYVYLQMNSLNPEDTAVYYCAAGRTKFAWSEYEYWGQGTQVTVSS”, the “polyreactivity (PSR sort gate)” value is “low polyreactivity”.
The value for “QVQLVESGGGLVQAGGSLRLSCAASGSTFTRYGMGRYRQAPGKERELVAAITTSGSSTYYADSVKGRFTISRDNAKNTVYLQMNSLKPEDTAVYYCAADWSSWGFDYWGQGTQVTVSS” was “low polyreactivity”; that for “QVQLVESGGGLVQAGGSLRLSCSATGNTLDVNARGWYRQAPGKERELVAAITSGGSTNYADSVKVRFTISRDNAKNTVYLQMNSLKPEDTAVYYCAATAALGRPEYYWGQGSQVTVSS” was “low polyreactivity”.
With “QVQLVESGGGLVQAGGSLRLTCAASGITFKYYAMGWYRQAPGKERELVAAIRGSGGGTNYADSVKGRFTISRDNAMNTVYLQMNSLKQEDSAVYYCAAANWRRNDYRYRFDYWGQGTQVTVSS”, the “polyreactivity (PSR sort gate)” value was “high polyreactivity”.
As to “QVQLVESGGGLVQAGGSLRIICAASGSTLGYNAMGWYRQAPGKERELVAAISSDGGSTYYADSVKGRFTISRDNAKNTVYLQMNSLKPEDTAVYYCAAYYYTPGYGSWGQGTQVTVSS”, the “polyreactivity (PSR sort gate)” value was “low polyreactivity”.
As to “QVQLVESGGGLVQAGGSLRLSCAASGRIFGVYAMGWYRQAPGKERELVAAIDRRGGTTYYADSVKGRFTISRDNAKNTVYLQMNSLKPEDTAVYYCAARSYPFIATYGYWGQGTQVTVSS”, the “polyreactivity (PSR sort gate)” value is recorded as “high polyreactivity”.
The value for “QVQFVESGGGLVQSGGSLRLSCAASGSIFRAYAMGWYRPAPGKEREFVAAISRRGGSTSYADSVKGRFTISRDYAKNTVYLQMNSLKPEDTAVYYCAATYQILTTSAHDSWGQGTQVTVSS” was “high polyreactivity”; that for “QFQLVESGRGLVQAGGSLRLSCASSGSTQKYAMGWYRQAPRKERELVAAIRRTGGSTYYADSVKGRFKISRDNAKNTVYLQMNSLKPEDTAVYYCAAYIWVAESYDWGQGTQVTVSS” was “low polyreactivity”; that for “QVHLVESGGGLVQAGGSLRLSSPASGRIFYRKALGWSRQETGKERELVAAISSSGGSTYYADSVKGRFTISRDNAKNTVYLQMNSLKPEDTEVYYCNKAVWGRSKYDFCGQGTQVTVSS” was “high polyreactivity”.
The value for “QVQLVESGGGLVQAGGSLRLISAASGSTFDSYAMGWYRPAPGKERELVAAITRSVGSTYYADSVKGRFTISRDNAKNTVYLHMNSVKPEVTAVYYCAARGEWAIYVEFDYWGQGTQVTVSS” was “low polyreactivity”; that for “QVQLVESGGGLVQAGGSLCLSCAGSGIFVYKAMGRYRQAPGKEREFVAAINKSGASTFYADSVKGRFTISRDNAKKTVYLQMNSLKPEDTAVYYCAKVPHVYRHYYYWGQGTQVTVSS” was “low polyreactivity”; that for “QVQLVESGGGLVQAGGSLRLSCAASGSTFGRYVMGWYRQAPGKERELVAAISKNAGSTYYADSVKGRFTISRDNAKNTVYLHMNSLKPEDTAVYYCAADWRTKGYDSLGQGTQVTVSS” was “high polyreactivity”.
In the case of “QVQLVESGGGLVQAGGSLRLSCAASGIILPYYAMGWYRQAPGKEREIVATISSDGTSTYYADSVKGRFTISRDNAKNTVYLQMNSLKPEDTAVYYCAARIRQNPGGDNSWGQGTQVTVSS” it was “low polyreactivity”; in that of “QVQLVESGGGLVQAGGSLRLSCAASGSTFWWYAMGWYRQAPGKERELVATIRDGGSTNYADSVKGRFTISRDNAKNTVYLQMNSLKPEDTAVYYCNADVYPYYRKPWMDYWGQGTQVTVSS”, “low polyreactivity”; in that of “QVQLVESGGGLVQAGGSLRLSCAASGRIFSLYAMGWYRQAPGKERELVAAISSSGGRTYYADSVKGRFTISRDNAKNTVYLQMNSLKPEDTAVYYCADLVFSWWTFEYWGQGTQVTVSS”, “high polyreactivity”.
For the sequence “LVHLQESGGGLVLAGGGLRLSCAASGNIFTYVIMGWYRQPAGKERELVAAITYGTITNYADSVKGPFTISRDNAKNTVYLQMNCLKPEDTAVYHCAVQSTRIVPRHYYCGQGTQVTVSS”, the “polyreactivity (PSR sort gate)” value is “high polyreactivity”.
The value for “QVQLVESGGGLVQAGGSLRLSCAASGFIFAINAMGWYRQAPGKERELVAAITSSGGSTYYADSVKGRFTISRDNAKNTVYLQMNSLKPEDTAVYYCAAPQGNPSQDWEDYWGQGTQVTVSS” was “low polyreactivity”; that for “QVQLVESGGGLVQAGGSLRLSCAASGSIFVRNAKGCYRQAPWKERELVAAITATGGRTYYADSVKGRFTISRDNAKNTVYLQMNSLKPEDTAVYYCAAYYPRSGYDYWGQGTQVNVSS” was “high polyreactivity”; that for “QVQLVESGGGLVQAGGSLRLSCAASGRIFVFYAMGWYRQAPGKVREFVATISYSGDTTYYADSVKGRFTISRDNAKNTVYLEMNSLKPEDTAVYYCAADQVPSYYYVPLGYDSWGQGTQVTVSS” was “low polyreactivity”.
Take “QVQLVESGGGSVQAGGSLRLSCAASGRTFYGYAMGWYRQAPGKERELGASISRDGSTNYADSVKGRFTISRDNAKNTVYLQMTSLKPEDTAVYYCAADIWYYRYPIYYYSYDYWGQGTQVNVSS”: the “polyreactivity (PSR sort gate)” value was “low polyreactivity”.
The value for “QVQLVESGGGLVQAGGSLRLSCAASGLTFYRNAMGWYTQAPGKERELVATISSSGGSTYYADSVKGRFTISRDNEKNTVYLQMNSLKPEDTAVYYCNARYYSYGPGKTVRYRTGYYGYWGQGTQVTVSS” was “high polyreactivity”; that for “QVQLVESGGGLVQAGGTLRLSCDASGSIFFWKAMGWYRQAPGKERELVAAISYTDGSTYYADSVKGRFTIPRDNAKNTVYLLMNSLKPEDTAVYYCAAAITPSYNGSEYDYWGQGTQVTVSS” was “low polyreactivity”; that for “QVQLVESGGGLVQAGGSLRLSCAASGRIFYANVMGWYRQAPGKEREFVSAIRWSGGRSYYADSVKGRFTISRDNAKYTVYLQMNSLKPEDTAVYYCAADGRVQSPQKFGYDYWGQGTQVTVSS” was “low polyreactivity”.
In the case of “QVQLVESGGGLVQAGGSLRLSCAASGRIFAFYAMGWYRQAPGKERELVAAISWSGGSTYYADSVKGRFTISRDNAKNTVYLQMNSLKPEDTAVYYCAAYRTRGSAYPYDYWGQGTQVTVSS” it was “high polyreactivity”.
In the case of “QLQLDESRGGLVQAGRSLRLSCAASGGNFRYYAMGWYRQAPGKERELDAAISSGGSTNYADSVKVRFTISRDNAKNTVYLQMNSLKREDTAVYYCAADVIYYYAYYTYDYWGQGTQVTVSS” it was “low polyreactivity”.
On to “QVQLVESGGGLVQAGGSLRLSCDASGLTFPSYAMGWYRQAPGKERELVAAISSGDSTNYADSVKGRFTISRDNAKNTVYLQMNSLKPEDTAVYYCAVGLPHGGRRLYGSWYRFDYWGQGTQVTVSS”, for which the “polyreactivity (PSR sort gate)” value is “low polyreactivity”.
The value for “QVQLVESGGGLVQAGGSLRLSCAASGRIFRSNAMGWYRQAPGKERELVAAISQRGGSTYYADSVKGRFTISRDNAKNTVYLQINSLKPEDTAVYYCNARGRYYSGDNWGQGTQVTVSS” was “high polyreactivity”; that for “QVKLVESGGGLVQAGCRLRLSCAASGFICGYNAMGWYRQAPGKERELVAAIDWSGTSTYYADSVKWRFTISRDNAKNTVYLQMNSLKPEDSAVYYCAADTSTWDHTRGYDYWGQGTQVTVSS” was “high polyreactivity”.
“QVQLVESGGRLVQAGGSLRLSCAASGRIFWWNAMGWYRQAPGKERQFVAAISYRGGSTYYADSVKGRFTISRDNAKNTVYLQMNSLKPEDTAVYYCAADWTYVGPSYSYYYWGQGTQVTVSS”: the “polyreactivity (PSR sort gate)” value is on record as “low polyreactivity”.
In the case of “QVQLVESGGGLVQAGGSLRLSCVASGRTFSRYAMGWYRQAPGKERELVAAISRRGGSTYYADSVKGRFTISRDNAKNTVYLQMNSLKPEDTAVYYCAAGYITWGSGNWVVTPYDYWGLGTQVTVSS” it was “high polyreactivity”; in that of “QVQLVESGGGLVQAGGSLRLSCAASGSIFDANAMGWYRQAPGKERELVATIRIGGSTNYADSVKGRFRISRDNAKNTVYLQMYSLKPEDTAGYYCAASRQFRSRRFYYWGQGTQVTVSS”, “high polyreactivity”.
In the case of “QVQLVESGGGLVQAGGSLRLSCAASGFIFRPYAMGWYRQAPGKERELVAAISYGDGITYYADSVKGRFTISRDNAKNTVYLQMNSLKPEDTAVYDCAVDSHPEEYDYWGQGTQVTVSS” it was “low polyreactivity”; in that of “QVQLVESGGGLVQAGGSLRLSCAASGRTFYWNPMGWYRQAPGKERELVAAITRNGGSTYYADSVKGRFTISRDNAKNTVYLQMNSLKPEDTAVYYCAARKRYGAGYDYWGQGTQVTVSS”, “high polyreactivity”; in that of “QVQLVESGGGLVQAGGSLRLSCAASGSIFAFYVMGWYRQAPGKERELVAAINRGGTNTYYADSVKGRFTISRDNGKNTVYLQMNSLKPEDTAVYYCAAQRYGGMDYWGQGTQVTVSS”, “high polyreactivity”.
For “QVQLVESGGGLVQAGGSHRLICAASGSTFNFNVMGWYRQEPGKERELDAAISSSGGNTYYADSVKGRFTISRDNAKNTVYLQMNSLKPEDTAVYYCADEYEEWYSVFLYDYWGQGTQVTVSS”, the “polyreactivity (PSR sort gate)” value is “high polyreactivity”.
The value for “QVQLVESGGGLVQAGGSLRLSCAASGFIFAYYAMGWYRQATGKERELVAGITRGSSTYYADSVKGRFTISRDNAKNTVYLQMNSLKPEDTAVYYCARGYTWFYAVWPEYDYWGEGTQVTVSS” was “high polyreactivity”; that for “QVQLVESGGGLVQAGGSLRLSCAASGSIFVWYAMGWYRQAPGRKELVAAISWSGGTTYYADSVKGRFTISRDNAKNTVYLQMNSLKPEDTAVYYCAARGAVQASFYYWGQGTQVTVSS” was “high polyreactivity”; that for “QVQLVESGGGLVQAGGSLRLSCAASGITFYGYAMGWYRQAPGKERELVAAITRGGSTNYADSVKGRFTISRDNAKITPYLQMNSLKPEDTAVYYCNTYVGRRPGYGYWGQGTQVTVSS” was “high polyreactivity”.
“QVQLVESGGGLVQAGGSLRLSCAASGRIFKLYAMGWYRQAPGKESELVAAITRRGGSTSYADSVKGRFTISRVNAKNTVYLQMNSLKPEDTSVYYCAASLSPWFTSYYLPYDLGYWGQGTQVTVSS”: the “polyreactivity (PSR sort gate)” value is listed as “high polyreactivity”.
The value for “QVQLVDSGGGLVQAGGSLRLSSAASGRTFDYYAMGWYRQAPGKERELVAAITKDGGSTYYADSVKGRFTISRDNAKNTVFLQMNSLKPEDTAVYYCAADGPPLYYDPIHYDYWGQGTQVTVSS” was “low polyreactivity”.
